Target: Hsp90alpha recombinant (UniProt P07900 1-732)
Experiment: filter binding

## CTGCTAGCCTCTGGATTTGA (XNA, full PS; LNA nt 1-5 and 16-20, DNA 6-15) [390896 PS/LNA 5-10-5]
  Kd: 17.7 nM

Reference: paper PMC4856991
